Assays:
[1] = target: T1, mouse CSF-1R C432S/C439S mutant expressed on M-/- macrophages (M-/-.C432/439SCSF-1R cells) (mouse, UniProt P09581 20-977); test: CSF-1 binding to upregulated cells carrying the receptor, FIG. 14
T1 construct: Full-length mutant receptor, retrovirally transduced into MacCsf1r-/- cells; also called mutant CSF-1R
T1 sequence: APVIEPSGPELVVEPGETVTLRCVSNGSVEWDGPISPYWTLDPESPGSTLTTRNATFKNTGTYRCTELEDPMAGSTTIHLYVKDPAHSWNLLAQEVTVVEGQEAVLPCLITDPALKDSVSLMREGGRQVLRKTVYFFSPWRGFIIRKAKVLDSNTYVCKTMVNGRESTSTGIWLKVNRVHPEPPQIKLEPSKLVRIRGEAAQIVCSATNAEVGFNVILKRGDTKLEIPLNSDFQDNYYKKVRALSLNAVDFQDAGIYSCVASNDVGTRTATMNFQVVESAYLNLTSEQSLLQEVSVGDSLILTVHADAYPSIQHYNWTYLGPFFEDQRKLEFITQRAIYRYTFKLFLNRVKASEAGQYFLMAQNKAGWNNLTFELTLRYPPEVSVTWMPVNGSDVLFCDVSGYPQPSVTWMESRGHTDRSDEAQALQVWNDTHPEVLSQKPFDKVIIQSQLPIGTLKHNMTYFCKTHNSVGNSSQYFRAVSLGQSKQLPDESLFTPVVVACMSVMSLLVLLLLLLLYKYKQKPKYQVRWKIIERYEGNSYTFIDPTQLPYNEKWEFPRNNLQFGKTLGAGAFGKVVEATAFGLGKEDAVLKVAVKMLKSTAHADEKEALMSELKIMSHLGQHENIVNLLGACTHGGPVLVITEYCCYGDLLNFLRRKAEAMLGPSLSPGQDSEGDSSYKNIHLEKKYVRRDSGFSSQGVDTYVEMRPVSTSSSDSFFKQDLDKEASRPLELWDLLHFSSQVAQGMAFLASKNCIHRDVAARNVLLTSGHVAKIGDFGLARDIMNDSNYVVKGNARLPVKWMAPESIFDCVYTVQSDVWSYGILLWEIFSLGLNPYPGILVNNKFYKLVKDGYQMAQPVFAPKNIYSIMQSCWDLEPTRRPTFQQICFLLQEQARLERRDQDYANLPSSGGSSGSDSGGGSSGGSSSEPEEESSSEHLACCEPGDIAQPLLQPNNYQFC

[2] = target: T1, mouse CSF-1R C432S/C439S mutant …; test: cell-based or functional assay

maximum CSF-1 binding relative to WT CSF-1R [1]: ~70%
fold decrease in CSF-1-induced tyrosine phosphorylation and ubiquitination of cells starved of CSF-1 for 24 h [2]: ~5 fold
B1: purified human recombinant CSF-1 (ligand, UniProt P09603 36-253, looked up)
chain: SEYCSHMIGSGHLQSLQRLIDSQMETSCQITFEFVDQEQLKDPVCYLKKAFLLVQDIMEDTMRFRDNTPNAIAIVQLQELSLRLKSCFTKDYEEHDKACVRTFYETPLQLLEKVKNVFNETKNLLDKDWNIFSKNCNNSFAECSSQDVVTKPDCNCLYPKAIPSSDPASVSPHQPLAPSMAPVAGLTWEDSEGTEGSSLLPGEQPLHTVDPGSAKQRP
notes: also called human CSF-1; colony stimulating factor-1

Reference: patent publication US20100298217A1 (published 2010)
